Measured values published in patent US10704030B2, “P450-BM3 variants with improved activity” (Codexis, Inc., priority 2015, dated 2020).
Changes are numbered by the printed parent chain. Numbers in names are those of the source.

B1: Variant 6: P450-BM3 variant of SEQ ID NO: 2: V51S; D118R; L219Y; K236H; P351T; S353T; N579T; T582A; E624D; A632S; D727S; Q931K (protein)
chain: MLMKQASAIPQPKTYGPLKNLPHLEKEQLSQSLWRIADELGPIFRFDFPGSSSVFVSGHNLVAEVCDEERFDKSIEGALEKVRAFSGDGLATSWTHEPNWRKAHNILMPTFSQRAMKRYHEKMVDIATQLIQKWSRLNPNEEIDVADDMTRLTLDTIGLCGFNYRFNSFYRDQPHPFITSMVRALDEAMNKLQRANPDDPAYDENKRQFQEDIKVMNDYVDSIIAERRANGDQDEHDLLARMLNVEDPETGEKLDDENIRFQIITFLIAGHETTSGLLSFAIYCLLTHPEKLKKAQEEADRVLTDDTPEYKQIQQLKYIRMVLNETLRLYPTAPAFSLYAKEDTVLGGEYTITKGQPVTVLIPKLHRDQNAWGPDAEDFRPERFEDPSSIPHHAYKPFGNGQRACIGMQFALQEATMVLGLVLKHFELINHTGYELKIKEALTIKPDDFKITVKPRKTAAINVQRKEQAEQSAKKVRKKAENAHNTPLLVLYGSNMGTAEGTARDLADIAMSKGFAPQVATLDSHAGNLPREGAVLIVTASYNGHPPDNAKQFVDWLDQASADEVKGVRYSVFGCGDKTWAATYQKVPAFIDETLAAKGAENIADRGEADASDDFEGTYEEWRDHMWSDVASYFNLDIENSEDNKSTLSLQFVDSAADMPLAKMHGAFSTNVVASKELQQPGSARSTRHLEIELPKEASYQEGDHLGVIPRNYEGIVNRVTARFGLSASQQIRLEAEEEKLAHLPLAKTVSVEELLQYVELQDPVTRTQLRAMAAKTVCPPHKVELEALLEKQAYKEQVLAKRLTMLELLEKYPACEMKFSEFIALLPSIRPRYYSISSSPRVDEKQASITVSVVSGEAWSGYGEYKGIASNYLAELQEGDTITCFISTPQSEFTLPKDPETPLIMVGPGTGVAPFRGFVQARKQLKEQGKSLGEAHLYFGCRSPHEDYLYQEELENAQSEGIITLHTAFSRMPNQPKTYVQHVMEQDGKKLIELLDQGAHFYICGDGSQMAPAVEATLMKSYADVHQVSEADARLWLQQLEEKGRYAKDVWAG
modifications: P450_BM3
notes: D118R; L219Y; K236H; P351T; S353T; N579T; T582A; E624D; A632S; D727S; Q931K
B2: Variant 7: P450-BM3 variant of SEQ ID NO: 2: V51S; D118R; T179V; L219Y; P351T; N579T; T582A; E624D; D727S (protein)
chain: B1 chain with T179V, H236K, T353S, S632A, K931Q
modifications: P450_BM3
notes: D118R; T179V; L219Y; P351T; N579T; T582A; E624D; D727S

Assay: Validation of generalist properties: oxidation of diclofenac by lyophilized P450-BM3 variant, UPLC-MS
Type: biochemical
Settings: [Diclofenac] = 1 mM
Protocol: (§1) For the production of lyophilized protein powders, LB agar plates supplemented with chloramphenicol (30 μg/mL) were streaked with E. coli containing a desired B. megaterium P450-BM3 variant in an IPTG-inducible vector. The plates were grown at 37° C. for 16 hrs before single clones were selected to inoculate a 15 mL Falcon™ tube (Fisher) containing TB media (3 mL) supplemented with chloramphenicol (30 μg/mL). The tube was shaken at 200 rpm, 30° C., and 85% humidity for 20-24 h to grow the cultures to saturation. Then, 2.5 mL of the overnight culture was used to inoculate sterile 1 L flasks containing TB medium (250 mL) supplemented with chloramphenicol (30 μg/mL), trace element solution (as described above), and 0.05 g/L ammonium iron (III) citrate. After being shaken at 250 rpm, 30° C., and 85% humidity to an OD600 of 0.8-1.2, P450 expression was induced by addition of IPTG (500 uM) and the heme precursor 5-aminolevulinic acid (5-ALA) to a final concentration of 500 uM. The cultures were grown for additional 20-24 hours and centrifuged in pre-weighed 250 mL centrifuge bottles for 20 minutes at 4000 rpm, 4° C. The supernatants were discarded, and the centrifuge bottles containing cell pellets were weighed. The pellets were resuspended in 50 mM potassium phosphate buffer with 2 mM DTT, pH 8.0 (5 mL of buffer per gram of cell pellet). The cells were lysed using a microfluidizer homogenizer, and the suspensions of cells and lysate were collected in sterile 50 mL centrifuge tubes. The samples were centrifuged for 30 minutes at 10,000 rpm, 4° C. The clarified lysate was collected into a plastic petri plate and frozen at −80° C. prior to lyophilization. The enzyme-containing lysates were lyophilized using standard methods known in the art.
(§2) Enzyme stocks (˜12 μM) were prepared by dissolving ˜20 mg of each enzyme in 100 mM potassium phosphate buffer, pH 8.0 (1 mL). The concentration of each enzyme stock solution was determined by the UV-visible absorption spectroscopy (after centrifugation to remove particulates) and diluted to standardize at 12 μM heme protein. Substrate solutions were prepared by dissolving each substrate in DMSO to reach a final concentration of 20 mM or 40 mM. Reaction mix (235 μL) followed by enzyme solution (50 μL) was added to the plates. The substrate stock solution was added to the enzyme solutions (15 μL at the two different concentrations). Each reaction contained 100 mM potassium phosphate, 1.0 mM NADP+, 25 mM glucose, 0.5 mg/mL glucose dehydrogenase, 5% DMSO and substrate at 1 or 2 mM. Loratadine, imatinib, and gefitinib (See, FIG. 1) were selected as substrates in addition to diclofenac to validate improved BM3 variants. The reactions were shaken at 450 rpm at 30° C. over 24 hours. All reactions were diluted with acetonitrile to a final concentration of 0.5 mM substrate. The plates were then centrifuged at 3,000 g for 1 hour at 20° C. The supernatant was diluted 1:1 with acetonitrile, filtered using a 0.4 micron filter, and analyzed by UPLC-MS.
(§3) For UPLC-MS analysis, the quenched and filtered reactions were transferred to 96-well HTP plates for analysis by UPLC on a Waters Acquity H-class system equipped with an autosampler. 1 uL of quenched sample was injected onto an Acquity UPLC HSS T3 column, 100 Å, (1.8 um; 2.1×100 mm). The column was eluted at a constant flow rate of 0.6 mL/min; conditions with solvent A (0.05% trifluoroacetic acid v/v, in H2O) and solvent B (0.05% trifluoroacetic acid v/v, in acetonitrile) used to elute the products of the reaction were: 0-2 min, A/B 95:5; 2-2.9 min, A/B 5:95; 2.9-3 min, A/B 95:5; 3-3.5 min, A/B 95:5. Column eluent was monitored by PDA (200-600 nm) prior to MS analysis in positive ESI mode (desolvation temperature 350° C., 3.25 kV spray voltage, cone voltage 25V). The column eluent was diverted to waste for the first 0.7 minutes of the run. For the remainder of the LC run, both MS (m/z 95-600 scan range) and MS/MS were collected. […]

| Molecule | % Conv. |
| --- | --- |
| B1 | ++ (5.01-10.00) |
| B2 | + (0-5.00) |

Same assay, conditions: [Diclofenac] = 1 mM; TON = [substrate]*% conversion/[P450]

| Molecule | TON |
| --- | --- |
| B1 | ‡‡ (1001-5000) |
| B2 | ‡‡ (1001-5000) |

Same assay, conditions: [Diclofenac] = 1 mM; fold improvement over parent MCYP-1.2-A05

| Molecule | FIOPC (A05) |
| --- | --- |
| B1 | **** (10.01-15.00) |
| B2 | **** (10.01-15.00) |

Assay: Validation of generalist properties: oxidation of loratadine by lyophilized P450-BM3 variant, UPLC-MS
Type: biochemical
Settings: [Loratadine] = 1 mM
Protocol: as §1, §2, §3

| Molecule | % Conv. |
| --- | --- |
| B1 | ++ (5.01-10.00) |
| B2 | ++ (5.01-10.00) |

Same assay, conditions: [Loratadine] = 1 mM; TON = [substrate]*% conversion/[P450]

| Molecule | TON |
| --- | --- |
| B1 | ‡‡ (1001-5000) |
| B2 | ‡‡ (1001-5000) |

Same assay, conditions: [Loratadine] = 1 mM; fold improvement over parent MCYP-1.2-A05

| Molecule | FIOPC (A05) |
| --- | --- |
| B1 | **** (10.01-15.00) |
| B2 | **** (10.01-15.00) |

Assay: Validation of generalist properties: oxidation of imatinib by lyophilized P450-BM3 variant, UPLC-MS
Type: biochemical
Settings: [Imatinib] = 1 mM
Protocol: as §1, §2, §3

| Molecule | % Conv. |
| --- | --- |
| B1 | ++++ (15.01-20.00) |
| B2 | ++ (5.01-10.00) |

Same assay, conditions: [Imatinib] = 1 mM; TON = [substrate]*% conversion/[P450]

| Molecule | TON |
| --- | --- |
| B1 | ‡‡‡‡ (10000-50000) |
| B2 | ‡‡‡‡ (10000-50000) |

Same assay, conditions: [Imatinib] = 1 mM; fold improvement over parent MCYP-1.2-A05

| Molecule | FIOPC (A05) |
| --- | --- |
| B1 | * (0.0-3.0) |
| B2 | ** (3.01-5.0) |

Assay: Validation of generalist properties: oxidation of gefitinib by lyophilized P450-BM3 variant, UPLC-MS
Type: biochemical
Settings: [Gefitinib] = 1 mM
Protocol: as §1, §2, §3

| Molecule | % Conv. |
| --- | --- |
| B1 | + (0-5.00) |
| B2 | + (0-5.00) |

Same assay, conditions: [Gefitinib] = 1 mM; TON = [substrate]*% conversion/[P450]

| Molecule | TON |
| --- | --- |
| B1 | ‡ (0-1000) |
| B2 | ‡ (0-1000) |

Same assay, conditions: [Gefitinib] = 1 mM; fold improvement over parent MCYP-1.2-A05

| Molecule | FIOPC (A05) |
| --- | --- |
| B1 | * (0.0-3.0) |
| B2 | * (0.0-3.0) |
